Data: US20210292396A1
Changes are numbered by the printed parent chain.

Tests used:
Assay in all cases: cell-based or functional assay
[1] = biological target: Env of HIV isolate ZM233.6 (clade C) (HIV)
[2] = biological target: HIV Env of isolate ZM214.15 (HIV)
[3] = biological target: Env of HIV isolate 3589.v1.c4 (clade AC) (HIV)
[4] = biological target: Env of HIV isolate BB201.B42 (clade A) (HIV)
[5] = biological target: HIV Env of isolate X1254.c3 (HIV)
[6] = biological target: Env of HIV isolate MB539.2B7 (clade A) (HIV)
[7] = biological target: Env of HIV isolate A07412M1.vrc12 (clade D) (HIV)
[8] = biological target: HIV Env of isolate SO18.18 (HIV)
[9] = biological target: HIV Env of isolate DU156.12 (HIV)
[10] = biological target: Env of HIV isolate DU172.17 (clade C) (HIV)
[11] = biological target: Env of HIV isolate BG1168.01 (clade B) (HIV)
[12] = biological target: Env of HIV isolate C3347.c11 (clade AE) (HIV)
[13] = biological target: HIV Env of isolate CNE7 (HIV)
[14] = biological target: Env of HIV isolate CNE55 (clade AE) (HIV)
[15] = biological target: Env of HIV isolate SC422.8 (clade B) (HIV)
[16] = biological target: Env of HIV isolate 57128.vrc15 (clade D) (HIV)
[17] = biological target: HIV Env of isolate CNE20 (HIV)
[18] = biological target: HIV Env of isolate X1632.S2.B10 (HIV)
[19] = biological target: Env of HIV isolate CAAN.A2 (clade B) (HIV)
[20] = biological target: HIV Env of isolate TZA125.17 (HIV)
[21] = biological target: Env of HIV isolate 00836-2.5 (clade C) (HIV)
[22] = biological target: HIV Env of isolate CNE30 (HIV)
[23] = biological target: Env of HIV isolate JRFL.JB (clade B) (HIV)
[24] = biological target: Env of HIV isolate DU123.06 (clade C) (HIV)
[25] = biological target: Env of HIV isolate 271-11 (clade AG) (HIV)
[26] = biological target: Env of HIV isolate X2088.c9 (clade G) (HIV)
Envelope of SVA.MLV = biological target: Envelope of SVA.MLV
Env of SIVmac251.30.SG3 = biological target: Env of SIVmac251.30.SG3
[27] = biological target: Env of HIV isolate Bal.01 (clade B) (HIV)
[28] = biological target: Env of HIV isolate 6644.v2.c33 (clade C) (HIV)
[29] = biological target: Env of HIV isolate CNE59 (clade AE) (HIV)
[30] = biological target: Env of HIV isolate KER2018.11 (clade A) (HIV)
[31] = biological target: HIV Env of isolate CAP256.206.C9 (HIV)
[32] = biological target: Env of HIV isolate CNE21 (clade BC) (HIV)
[33] = biological target: Env of HIV isolate X1632.S2.B10 (clade G) (HIV)
[34] = biological target: Env of HIV isolate 0921.v2.c14 (clade C) (HIV)
[35] = biological target: Env of HIV isolate 3337.v2.c6 (clade CD) (HIV)
[36] = biological target: Env of HIV isolate Ce1176.A3 (clade C) (HIV)
[37] = biological target: Env of HIV isolate 286.36 (clade C) (HIV)
[38] = biological target: HIV Env of isolate CE703010217.B6 (HIV)
[39] = biological target: Env of HIV isolate M02138 (clade AE) (HIV)
[40] = biological target: Env of HIV isolate Q461.e2 (clade AD) (HIV)
[41] = biological target: Env of HIV isolate CAP256.206.C9 (clade C) (HIV)
[42] = biological target: HIV Env of isolate 6631.v3.c10 (HIV)
[43] = biological target: Env of HIV isolate T253-11 (clade AG) (HIV)
[44] = biological target: HIV Env of isolate 25710-2.43 (HIV)
[45] = biological target: Env of HIV isolate TZBD.02 (clade C) (HIV)
[46] = biological target: Env of HIV isolate 191821.E6.1 (clade D) (HIV)
[47] = biological target: Env of HIV isolate 3365.v2.c20 (clade A) (HIV)
[48] = biological target: HIV Env of isolate 0921.v2.c14 (HIV)

B1: ePGT121.18 (ePGT121.18.H1 VH and ePGT121.17.L1 VL) (antibody, V domains shown)
VH: QMQLQESGPGLVKPGETLSLTCSVSGASISSSYWSWLRETPGKGLEWIGYTHHSGDTNYAPSLKSRVHLGLHPSKNQVSLSLTSVTAADTAVYYCARTLHGRRIYGVVAFNEYYTYFYWPTWGKGTQVTVSS
VL: SDISVAPGETVRITCGGESIGSRAVQWYQHRPGQAPRLIIYNNQDRPPGIPERFSGSPDIDFGTTATLTISNVEAGDEATYYCHIWDSRRPTNWELGPGTTLTVL
IC50, pseudovirus neutralization [1]: 0.006 µg/mL | IC80, pseudovirus neutralization (M1) [2]: 0.053 µg/mL | IC80, pseudovirus neutralization (M2) [2]: 0.067 µg/mL | IC50, pseudovirus neutralization [3]: 0.252 µg/mL | IC50, pseudovirus neutralization [4]: 0.002 µg/mL | IC80, pseudovirus neutralization (M1) [5]: 0.005 µg/mL | IC80, pseudovirus neutralization (M2) [5]: 0.006 µg/mL | IC50, pseudovirus neutralization [6]: > 50 µg/mL | IC50, pseudovirus neutralization [7]: 0.003 µg/mL | IC80, pseudovirus neutralization (M1) [8]: 0.005 µg/mL | IC80, pseudovirus neutralization (M2) [8]: 0.007 µg/mL | IC80, pseudovirus neutralization (M1) [9]: 0.003 µg/mL | IC80, pseudovirus neutralization (M2) [9]: 0.003 µg/mL | IC50, pseudovirus neutralization [10]: 0.003 µg/mL | IC50, pseudovirus neutralization [11]: > 50 µg/mL | IC50, pseudovirus neutralization [12]: > 50 µg/mL | IC80, pseudovirus neutralization (M1) [13]: 0.008 µg/mL | IC80, pseudovirus neutralization (M2) [13]: 0.007 µg/mL | IC50, pseudovirus neutralization [14]: > 50 µg/mL | IC50, pseudovirus neutralization [15]: 0.005 µg/mL | IC50, pseudovirus neutralization [16]: 0.004 µg/mL | IC80, pseudovirus neutralization (M1) [17]: 0.003 µg/mL | IC80, pseudovirus neutralization (M2) [17]: 0.004 µg/mL | IC80, pseudovirus neutralization (M1) [18]: > 50 µg/mL | IC80, pseudovirus neutralization (M2) [18]: > 50 µg/mL | IC50, pseudovirus neutralization [19]: 0.002 µg/mL | IC80, pseudovirus neutralization (M1) [20]: 0.137 µg/mL | IC80, pseudovirus neutralization (M2) [20]: 0.186 µg/mL | IC50, pseudovirus neutralization [21]: 14.4 µg/mL | IC80, pseudovirus neutralization (M1) [22]: 0.013 µg/mL | IC80, pseudovirus neutralization (M2) [22]: 0.016 µg/mL | IC50, pseudovirus neutralization [23]: 0.006 µg/mL | IC50, pseudovirus neutralization [24]: 0.002 µg/mL | IC50, pseudovirus neutralization [25]: > 50 µg/mL | IC50, pseudovirus neutralization [26]: 0.002 µg/mL | IC80, pseudovirus neutralization (M1) (Envelope of SVA.MLV): > 50 µg/mL | IC80, pseudovirus neutralization (M2) (Envelope of SVA.MLV): > 50 µg/mL | IC80, pseudovirus neutralization (M1) (Env of SIVmac251.30.SG3): > 50 µg/mL | IC80, pseudovirus neutralization (M2) (Env of SIVmac251.30.SG3): > 50 µg/mL | IC50, pseudovirus neutralization [27]: 0.002 µg/mL | IC50, pseudovirus neutralization [28]: 0.002 µg/mL | IC50, pseudovirus neutralization [29]: > 50 µg/mL | IC50, pseudovirus neutralization [30]: > 50 µg/mL | IC80, pseudovirus neutralization (M1) [31]: 0.003 µg/mL | IC80, pseudovirus neutralization (M2) [31]: 0.004 µg/mL | IC50, pseudovirus neutralization [32]: 0.0009 µg/mL | IC50, pseudovirus neutralization [33]: > 50 µg/mL | IC50, pseudovirus neutralization [34]: 0.091 µg/mL | IC50, pseudovirus neutralization [35]: 0.232 µg/mL | IC50, pseudovirus neutralization [36]: 0.003 µg/mL | IC50, pseudovirus neutralization [37]: 0.001 µg/mL | IC80, pseudovirus neutralization (M1) [38]: 0.008 µg/mL | IC80, pseudovirus neutralization (M2) [38]: 0.008 µg/mL | IC50, pseudovirus neutralization [39]: > 50 µg/mL | IC50, pseudovirus neutralization [40]: > 50 µg/mL | IC50, pseudovirus neutralization [41]: 0.001 µg/mL | IC80, pseudovirus neutralization (M1) [42]: 0.04 µg/mL | IC80, pseudovirus neutralization (M2) [42]: 0.044 µg/mL | IC50, pseudovirus neutralization [43]: 0.004 µg/mL | IC80, pseudovirus neutralization (M1) [44]: 0.01 µg/mL | IC80, pseudovirus neutralization (M2) [44]: 0.013 µg/mL | IC50, pseudovirus neutralization [45]: 0.002 µg/mL | IC50, pseudovirus neutralization [46]: 0.015 µg/mL | IC50, pseudovirus neutralization [47]: 0.004 µg/mL | IC80, pseudovirus neutralization (M1) [48]: 1.03 µg/mL | IC80, pseudovirus neutralization (M2) [48]: 1.49 µg/mL

B2: ePGT121.18.17 (ePGT121.18.H17 VH and ePGT121.17.L1 VL) (antibody, V domains shown)
VH: B1 VH with H68T, L69I, H72D
VL: B1 VL
IC50, pseudovirus neutralization [1]: 0.017 µg/mL | IC80, pseudovirus neutralization [2]: 0.294 µg/mL | IC50, pseudovirus neutralization [3]: 2.73 µg/mL | IC50, pseudovirus neutralization [4]: 0.003 µg/mL | IC80, pseudovirus neutralization [5]: 0.015 µg/mL | IC50, pseudovirus neutralization [6]: > 50 µg/mL | IC50, pseudovirus neutralization [7]: 0.004 µg/mL | IC80, pseudovirus neutralization [8]: 0.011 µg/mL | IC80, pseudovirus neutralization [9]: 0.006 µg/mL | IC50, pseudovirus neutralization [10]: 0.007 µg/mL | IC50, pseudovirus neutralization [11]: > 50 µg/mL | IC50, pseudovirus neutralization [12]: > 50 µg/mL | IC80, pseudovirus neutralization [13]: 0.017 µg/mL | IC50, pseudovirus neutralization [14]: > 50 µg/mL | IC50, pseudovirus neutralization [15]: 0.016 µg/mL | IC50, pseudovirus neutralization [16]: 0.012 µg/mL | IC80, pseudovirus neutralization [17]: 0.005 µg/mL | IC80, pseudovirus neutralization [18]: > 50 µg/mL | IC50, pseudovirus neutralization [19]: 0.004 µg/mL | IC80, pseudovirus neutralization [20]: 0.549 µg/mL | IC50, pseudovirus neutralization [21]: 48.9 µg/mL | IC80, pseudovirus neutralization [22]: 0.047 µg/mL | IC50, pseudovirus neutralization [23]: 0.011 µg/mL | IC50, pseudovirus neutralization [24]: 0.004 µg/mL | IC50, pseudovirus neutralization [25]: > 50 µg/mL | IC50, pseudovirus neutralization [26]: 0.006 µg/mL | IC80, pseudovirus neutralization (Envelope of SVA.MLV): > 50 µg/mL | IC80, pseudovirus neutralization (Env of SIVmac251.30.SG3): > 50 µg/mL | IC50, pseudovirus neutralization [27]: 0.003 µg/mL | IC50, pseudovirus neutralization [28]: 0.005 µg/mL | IC50, pseudovirus neutralization [29]: > 50 µg/mL | IC50, pseudovirus neutralization [30]: > 50 µg/mL | IC80, pseudovirus neutralization [31]: 0.009 µg/mL | IC50, pseudovirus neutralization [32]: 0.002 µg/mL | IC50, pseudovirus neutralization [33]: > 50 µg/mL | IC50, pseudovirus neutralization [34]: 0.189 µg/mL | IC50, pseudovirus neutralization [35]: 0.363 µg/mL | IC50, pseudovirus neutralization [36]: 0.008 µg/mL | IC50, pseudovirus neutralization [37]: 0.003 µg/mL | IC80, pseudovirus neutralization [38]: 0.016 µg/mL | IC50, pseudovirus neutralization [39]: > 50 µg/mL | IC50, pseudovirus neutralization [40]: > 50 µg/mL | IC50, pseudovirus neutralization [41]: 0.004 µg/mL | IC80, pseudovirus neutralization [42]: 0.269 µg/mL | IC50, pseudovirus neutralization [43]: 0.025 µg/mL | IC80, pseudovirus neutralization [44]: 0.026 µg/mL | IC50, pseudovirus neutralization [45]: 0.003 µg/mL | IC50, pseudovirus neutralization [46]: 0.104 µg/mL | IC50, pseudovirus neutralization [47]: 0.007 µg/mL | IC80, pseudovirus neutralization [48]: 3.48 µg/mL
